Measured values from patent US20070099822A1, “Regulation of tissue mineralization and phosphate metabolism by asarm peptides” (priority 2003, published 2007).
Values joined by “and” are separate entries in the source; they are usually repeats but may differ in a detail not shown here. Equal entries are not always repeated.

Test system: Na+ dependent phosphate co-transport in primary human renal proximal tubule epithelial cells (RPTEC)
Test: 33PO4 uptake scintillation proximity assay (SPA) in RPTEC
Format: cell-based
Experimental: Measurement of ^33PO4 uptake and ^14C-α-methyl D-glucose uptake. A novel technique, scintillation proximity assay (SPA), was used to measure ^33PO4 uptake in-vitro. Human renal proximal-tubule primary cells (RPTEC) were purchased from Clonetics-Biowhittaker (Walkersville, Md.) (cat. no. CC2553) and were cultured and subcultured using the manufacturers recommended protocols, methods, buffers and media (cat. nos. CC3190, CC5034). Also a human renal cell-line (Hu-CL8) was cultured as previously described (Rowe et al. Candidate 56 and 58 kDa protein(s) responsible for mediating the renal defects in oncogenic hypophosphatemic osteomalacia. Bone 18(2):159-169, 1996). For ^33PO4-uptake measurement cells were grown in REBM media supplemented with 5% fetal calf serum (REBM-FCS) to 80% confluence (Clonetics-Biowhitaker, Walkersville, Md.: cat. nos. CC2553, CC3190 and CC5034) and seeded into 96 well (3000 cells/well) cytostar-T scintillating-microplates (Amersham-Pharmacia Biotech, Piscataway, N.J.: cat. no. RPNQ 0162). Cells were then cultured in 200 μL of REBM-FCS media for 24 h. Media was then replaced with serum free media (REBM) and the cells incubated for a further 3-4 h with Hu-MEPE, PTH (1-34) or media control respectively in REBM media. The concentrations of PTH (1-34) and Hu-MEPE were […] and each experimental dose was repeated eight times for statistical analysis. Following incubation media was removed and replaced with either phosphate uptake buffer (PUB) consisting of 150 mM NaCl/1 mM Cacl2/1.8 mM MgSO4/10 mM HEPE pH 7.0/0.1 mM phosphate buffer pH 7.0 and 3 uCi mL^−1 33P as orthophosphoric acid (18 MBq/mL or 5775.7 Gbq/mg stock solution Perkin Elmer, Wellesley, Mass.: cat. no. NEZ080). In order to determine the Na-dependent phosphate co-transporter activity a separate set of control cells were incubated with the same buffer but with choline chloride (150 mM) substituted for NaCl (CHUB buffer). After 10 min at 37° C. the reaction was terminated by removing the PUB and CHUB buffers and replacing with STOP buffer (CHUB buffer without radioisotope). The cytostar scintillation plates were then directly assayed for counts (CPM) using a Hewlett-Packard (Palo Alto, Calif.) Multiplate Top-counter calibrated for ^33P SPA assay. Due to the unique design of the 96 well cytostar-plate radioactive decay in solution is not detected by the counter. In contrast, radioisotope attached to or taken into the cells initiates release of plastic-scintillant photons that are detected by the top-counter photo-multiplier tube. Thus, no washes are required and direct CPM can be counted in living cells. Following CPM determination the buffers were removed from the living cells and fresh media supplemented with cell-titre-96 (Promega-Biotech, Madison, Wis.: cat. no. G5421) cell-number detection media. Cells were then further incubated at 37° C. for 4 h. Conversion of a tetrazolium salt to a colored formazan product by living cells was then measured at 490 nm using a 96 well multi-well spectrophotometer with KC-4 software (absorbance at 490 nm is directly proportional to the number of living cells). Na-dependent ^33P uptake was then calculated by subtracting background counts and the choline chloride non Na-dependent ^33P uptake and results expressed as ^33PO4 femtomoles/10^4-cells/6 min. […]

B1: Hu-MEPE: purified insect expressed full-length recombinant human MEPE (Matrix Extracellular Phosphoglycoprotein) (protein)
chain: PTFQPQTEKTKQSCVEEQRQEEKNKDNIGFHHLGKRINQELSSKENIVQERKKDLSLSEASENKGSSKSQNYFTNRQRLNKEYSISNKENTHNGLRMSIYPKSTGNKGFEDGDDAISKLHDQEEYGAALIRNNMQHIMGPVTAIKLLGEENKENTPRNVLNIIPASMNYAKAHSKDKKKPQRDSQAQKSPVKSKSTHRIQHNIDYLKHLSKVKKIPSDFEGSGYTDLQERGDNDISPFSGDGQPFKDIPGKGEATGPDLEGKDIQTGFAGPSEAESTHLDTKKPGYNEIPEREENGGNTIGTRDETAKEADAVDVSLVEGSNDIMGSTNFKELPGREGNRVDAGSQNAHQGKVEFHYPPAPSKEKRKEGSSDAAESTNYNEIPKNGKGSTRKGVDHSNRNQATLNEKQRFPSKGKSQGLPIPSRGLDNEIKNEMDSFNGPSHENIITHGRKYHYVPHRQNNSTRNKGMPQGKGSWGRQPHSNRRFSSRRRDDSSESSDSGSSSESDGD
  Vmax of percentage inhibition of 33PO4-uptake: 53.4%
  inhibition of Na+ dependent phosphate co-transport: dose-dependent in-vitro inhibition
lineweaver-burke plot
  Km of inhibition of 33PO4-uptake: 27.4 ng/mL and 27.39 ng/mL
